Data on two molecules can be found in patent publication US20070166710A1, “Methods for inhibiting adipogenesis and for treating type 2 diabetes” (priority 2003, published 2007).

Experiment [1] deals with T1, HA-Akt (human Akt1 fused to an N-terminal HA-tag, expressed from pCMV-HA-Akt) (human, UniProt P31749 1-480).
T1 construct: Expressed in transfected HEK/293 or HepG2 cells; The methods also mention Akt2 for HEK/293 transfections, but pCMV-HA-Akt is defined as HA-Akt1; also called HA-Akt1; pCMV-HA-Akt-1; not shown: N-terminal HA-tag
Put plainly: co-immunoprecipitation from transfected HEK/293 cells (anti-HA IP, Western blot for Foxa-2; the reverse anti-Foxa-2 IP also coprecipitated Akt).

Experiment [2] deals with T1, HA-Akt (human Akt1 fused to an …). The experiment is described as follows: co-immunoprecipitation from transfected HEK/293 cells (anti-HA IP; the reverse anti-Foxa-2 IP gave the same result).

T1 sequence (P31749 whole entry, the tested form may be a part): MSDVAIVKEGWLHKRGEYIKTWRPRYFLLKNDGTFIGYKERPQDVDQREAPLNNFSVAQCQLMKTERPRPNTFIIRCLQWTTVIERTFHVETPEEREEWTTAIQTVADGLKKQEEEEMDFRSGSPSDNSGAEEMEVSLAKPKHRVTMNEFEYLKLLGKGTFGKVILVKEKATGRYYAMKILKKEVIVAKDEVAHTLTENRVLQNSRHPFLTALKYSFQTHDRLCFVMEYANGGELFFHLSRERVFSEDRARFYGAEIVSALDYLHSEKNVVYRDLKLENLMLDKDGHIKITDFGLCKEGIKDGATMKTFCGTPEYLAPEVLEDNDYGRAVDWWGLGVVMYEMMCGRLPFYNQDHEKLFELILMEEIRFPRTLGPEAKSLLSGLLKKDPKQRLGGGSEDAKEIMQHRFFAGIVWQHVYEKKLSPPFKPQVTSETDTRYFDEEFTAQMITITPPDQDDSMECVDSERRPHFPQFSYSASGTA

B1: Foxa-2T156A (other, rat, UniProt P32182 1-458, looked up)
chain: MLGAVKMEGHEPSDWSSYYAEPEGYSSVSNMNASLGMNGMNTYMSMSAAAMGSGSGNMSAGSMNMSSYVGAGMSPSLAGMSPGAGAMAGMSGSAGAAGVAGMGPHLSPSLSPLGGQAAGAMGGLAPYANMNSMSPMYGQAGLSRARDPKTYRRSYAHAKPPYSYISLITMAIQQSPNKMLTLSEIYQWIMDLFPFYRQNQQRWQNSIRHSLSFNDFLKVPRAPDKPGKGSFWTLHPDSGNMFENGCYLRRQKRFKCENELALKEAAGAGSGGGKKTAPGTQASQVQLGEAAGSASETPAGTESPHSSASPCQEHKRGGLSELKGTPASALSPPEPAPSPGQQQQAAAHLLGPPHHPGLPPEAHLKPEHHYAFNHPFSINNLMSSEQQHHHSHHHHQPHKMDLKTYEQVMHYPGGYGSPMPGSLAMGPVTNKAGLDASPLAADTSYYQGVYSRPIMNSS
notes: Phosphorylation-deficient mutant; also called TI56A; Foxa-2TI56A
For the molecule B1, the binding result in experiment [1] is on record as “binds”.

B2: Foxa-2R153K (other, rat, UniProt P32182 1-458, looked up)
chain: MLGAVKMEGHEPSDWSSYYAEPEGYSSVSNMNASLGMNGMNTYMSMSAAAMGSGSGNMSAGSMNMSSYVGAGMSPSLAGMSPGAGAMAGMSGSAGAAGVAGMGPHLSPSLSPLGGQAAGAMGGLAPYANMNSMSPMYGQAGLSRARDPKTYRKSYTHAKPPYSYISLITMAIQQSPNKMLTLSEIYQWIMDLFPFYRQNQQRWQNSIRHSLSFNDFLKVPRAPDKPGKGSFWTLHPDSGNMFENGCYLRRQKRFKCENELALKEAAGAGSGGGKKTAPGTQASQVQLGEAAGSASETPAGTESPHSSASPCQEHKRGGLSELKGTPASALSPPEPAPSPGQQQQAAAHLLGPPHHPGLPPEAHLKPEHHYAFNHPFSINNLMSSEQQHHHSHHHHQPHKMDLKTYEQVMHYPGGYGSPMPGSLAMGPVTNKAGLDASPLAADTSYYQGVYSRPIMNSS
Turning to B2, the binding result in experiment [2] is given as “no binding”.
